Laboratory results reported in article PMC4618406.

Legend:
[1] = TEM of fibers from mixtures; settings: glycan gained; control: unmodified α-synuclein, 50 μM
[2] = ThT fluorescence of gT72/unmodified mixtures, 50 μM total; settings: glycan gained, control: unmodified α-synuclein

Row | Substance | structure_or_conformation [1] | other: fibril aggregation [2]
1 | α-synuclein: 10-50% α-synuclein(gT72) mixtures | no change | 
2 | α-synuclein: 50% α-synuclein(gT72) |  | decreases
3 | α-synuclein: 25% α-synuclein(gT72) |  | decreases
4 | α-synuclein: 10% α-synuclein(gT72) |  | decreases
